Measured values as given in patent publication US20260070940A1 (Hoffmann-La Roche, published 2026).
Values joined by “and” are separate entries in the source; they are usually repeats but may differ in a detail not shown here. Equal values may be shown once. Each block holds one binder with its values, some of them ahead of it.

Legend:
[1] = biological target: T1, full-length human CD28 with N-terminal SNAP tag on transfected Hek293 cells (human, UniProt P10747 19-220, SNAP tag labelled with terbium); test: FRET competition, unlabelled against d2-TGN1412 on CD28-SNAP cells; 95% CI in brackets
T1 construct: whole, on cells; also called hu CD28-SNAP

[2] = biological target: T1, full-length human CD28 with N-terminal …; test: FRET competition on cells with terbium-labelled hu CD28-SNAP; competitor d2-labelled TGN1412 (0.15 nM), unlabelled TGN1412 IgG titrated
[3] = biological target: T2, MCSP antigen, amino acids 1553 to 2184 of matured MCSP with C-terminal avi-tag and His-tag, biotinylated (Homo sapiens (Human), UniProt Q6UVK1 1582-2213, limits assumed, biotin on the avi-tag); test: ELISA, supernatant on biotinylated antigen
T2 construct: also called recombinant MCSP
T2 sequence: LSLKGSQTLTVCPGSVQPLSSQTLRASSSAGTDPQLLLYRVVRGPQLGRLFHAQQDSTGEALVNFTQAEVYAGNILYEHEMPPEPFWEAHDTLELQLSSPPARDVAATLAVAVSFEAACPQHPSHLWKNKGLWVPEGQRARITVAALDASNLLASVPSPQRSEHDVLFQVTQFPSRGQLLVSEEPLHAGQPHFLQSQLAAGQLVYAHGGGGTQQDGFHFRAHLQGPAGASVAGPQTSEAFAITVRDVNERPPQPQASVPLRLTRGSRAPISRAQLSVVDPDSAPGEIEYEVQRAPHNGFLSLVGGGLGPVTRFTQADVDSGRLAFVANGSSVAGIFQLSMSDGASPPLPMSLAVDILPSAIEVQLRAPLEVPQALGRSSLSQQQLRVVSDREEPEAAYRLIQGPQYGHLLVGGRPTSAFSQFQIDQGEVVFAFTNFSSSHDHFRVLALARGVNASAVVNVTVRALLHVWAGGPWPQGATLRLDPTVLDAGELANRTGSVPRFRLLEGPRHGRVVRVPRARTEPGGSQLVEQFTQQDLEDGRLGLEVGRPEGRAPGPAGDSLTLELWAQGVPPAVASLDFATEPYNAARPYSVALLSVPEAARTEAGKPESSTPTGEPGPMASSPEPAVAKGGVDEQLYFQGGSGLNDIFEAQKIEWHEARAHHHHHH

[4] = biological target: T3, recombinant human LAG3 Fc Chimera Protein (R&D Systems, 2319-L3) (human, UniProt P18627 23-450); test: SPR, captured aVH-Fc, LAG3 Fc analyte; poor fit
T3 construct: Bought
T3 sequence (looked up): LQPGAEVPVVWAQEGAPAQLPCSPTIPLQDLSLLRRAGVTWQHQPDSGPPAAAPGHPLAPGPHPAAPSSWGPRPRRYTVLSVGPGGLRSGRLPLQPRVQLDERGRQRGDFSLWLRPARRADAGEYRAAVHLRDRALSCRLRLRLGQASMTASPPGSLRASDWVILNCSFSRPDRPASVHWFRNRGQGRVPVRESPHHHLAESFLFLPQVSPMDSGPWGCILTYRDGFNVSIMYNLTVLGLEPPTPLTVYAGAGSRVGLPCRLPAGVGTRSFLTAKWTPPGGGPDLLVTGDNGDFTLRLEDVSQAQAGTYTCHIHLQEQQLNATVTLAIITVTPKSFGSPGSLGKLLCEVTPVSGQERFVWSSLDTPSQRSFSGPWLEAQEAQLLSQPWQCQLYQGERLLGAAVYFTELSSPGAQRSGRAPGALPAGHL

[5] = biological target: T4, soluble human Lag3-IgG1-Fc with biotinylated C-terminal Avi-tag (human, biotin on the Avi-tag); test: A375 MHCII competition ELISA, 3 ug/ml
T4 construct: Lag3 ECD, IEGRMD linker, IgG1 Fc, Avi-tag; also called LAG3-Fc-avi; biotinylated LAG3-Fc

[6] = biological target: T3, recombinant human LAG3 Fc Chimera …; test: SPR, captured aVH-Fc, LAG3 Fc analyte
[7] = biological target: T3, recombinant human LAG3 Fc Chimera …; test: ELISA, coated LAG3 Fc
[8] = biological target: T5, murine LAG3-Fc antigen (R&D Systems, 3328-L3-050) (murine, UniProt Q61790 24-442); test: ELISA, murine LAG3-Fc
T5 construct: Bought
T5 sequence (looked up): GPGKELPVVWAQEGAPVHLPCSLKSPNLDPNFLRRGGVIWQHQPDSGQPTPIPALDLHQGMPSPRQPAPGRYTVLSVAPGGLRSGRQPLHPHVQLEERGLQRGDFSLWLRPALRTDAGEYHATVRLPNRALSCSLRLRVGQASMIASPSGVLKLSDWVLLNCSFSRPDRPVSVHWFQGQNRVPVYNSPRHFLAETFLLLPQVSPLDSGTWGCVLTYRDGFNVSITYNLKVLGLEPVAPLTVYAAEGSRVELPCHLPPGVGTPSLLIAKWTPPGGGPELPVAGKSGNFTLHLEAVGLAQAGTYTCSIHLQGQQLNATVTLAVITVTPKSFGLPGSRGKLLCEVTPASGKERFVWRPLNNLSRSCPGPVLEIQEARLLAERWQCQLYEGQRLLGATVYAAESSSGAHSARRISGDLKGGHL

[9] = biological target: T6, human LAG3 on recombinant CHO cells (human, UniProt P18627 23-525); test: cell ELISA, CHO-LAG3
T6 construct: whole, on cells; also called Lag3 cells
T6 sequence (looked up): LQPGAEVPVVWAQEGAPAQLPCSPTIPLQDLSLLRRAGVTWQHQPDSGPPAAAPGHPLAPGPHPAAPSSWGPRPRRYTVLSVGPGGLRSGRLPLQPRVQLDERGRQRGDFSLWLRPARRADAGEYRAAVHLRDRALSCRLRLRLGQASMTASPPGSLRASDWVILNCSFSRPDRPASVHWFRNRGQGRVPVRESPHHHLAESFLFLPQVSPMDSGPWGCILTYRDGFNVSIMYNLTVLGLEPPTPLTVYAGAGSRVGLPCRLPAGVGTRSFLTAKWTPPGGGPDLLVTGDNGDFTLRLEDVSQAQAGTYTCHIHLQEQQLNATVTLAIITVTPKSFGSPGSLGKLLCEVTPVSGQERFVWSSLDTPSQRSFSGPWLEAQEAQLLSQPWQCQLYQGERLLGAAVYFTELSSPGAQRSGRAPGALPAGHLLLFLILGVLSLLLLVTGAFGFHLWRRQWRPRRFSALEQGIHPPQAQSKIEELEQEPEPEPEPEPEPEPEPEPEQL

[10] = biological target: T4, soluble human Lag3-IgG1-Fc with …; test: A375 MHCII competition ELISA

Ki [1]: 0.28 nM
IC50 (read off the curve) [2]: ~0.6 nM
B1: TGN1412 IgG (antibody, V domains shown)
VH: QVQLVQSGAEVKKPGASVKVSCKASGYTFTSYYIHWVRQAPGQGLEWIGCIYPGNVNTNYNEKFKDRATLTVDTSISTAYMELSRLRSDDTAVYFCTRSHYGLDWNFDVWGQGTTVTVSS
VL: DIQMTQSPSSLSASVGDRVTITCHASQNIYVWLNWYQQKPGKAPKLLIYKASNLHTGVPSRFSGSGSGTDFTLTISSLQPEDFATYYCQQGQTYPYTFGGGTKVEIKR

binding result [3]: binds
B2: SEQ ID NO 61 (VHH)
VHH: EVQLVESGGGLVQPGGSLRLSCAASSFNIKDTYIGWVRRAPGKGTELVAGIYCEAGITRYADSVKGRFTISCDTSKNTAYLQMNSLRAEDTAVYYCAGKGIGNYFDYWGQGTTVTVSS
notes: also called MCSP-specific aVH

koff [4]: 0.0048 s⁻¹
% Inhibition [5]: 92.4%
t½ [6]: 2.4 min
OD max [7]: 1.3
binding result [8]: no binding
EC50 [9]: 0.0169 µg/mL and 0.2 nM
OD max [9]: 1.2
IC50 [10]: 0.0903 µg/mL and 1.2 nM
B3: P11A2 aVH-Fc, bivalent (PG-LALA) (Fc fusion)
heavy: EVQLVESGGGLVQPGGSLRLSCAASSFNIKDTYIGWVRRAPGKGTELVAEIACHEGTTRYADSVKGRFTISCDTSKNTAYLQMNSLRAEDTAVYYCANTEYDDIFDYWGQGTTVTVSSGGGGSGGGGSDKTHTCPPCPAPEAAGGPSVFLFPPKPKDTLMISRTPEVTCVVVDVSHEDPEVKFNWYVDGVEVHNAKTKPREEQYNSTYRVVSVLTVLHQDWLNGKEYKCKVSNKALGAPIEKTISKAKGQPREPQVYTLPPSRDELTKNQVSLTCLVKGFYPSDIAVEWESNGQPENNYKTTPPVLDSDGSFFLYSKLTVDKSRWQQGNVFSCSVMHEALHNHYTQKSLSLSPGK
